For four substances, Median MFI (PE-A) results are on record in patent US20190338035A1.

Experiment [1] has as its target WT H3.1 26-35 peptide/HLA-A*02:01 complex on T2 cells (human). The experiment is described as follows: flow cytometry on T2 cells, anti-M13 + PE anti-mouse IgG, no phage (background control). A general note: A flow cytometer gives signals particle by particle.
In experiment [2] the target is control peptide mixture P20/HLA-A*02:01 complexes on T2 cells (human). The description is as above.
In experiment [3] the target is HLA-A*02:01 on T2 cells without peptide loading (human). The description is as above.
The target in experiment [4] is WT H3.3 26-35 peptide/HLA-A*02:01 complex on T2 cells (human). Described as above.
Experiment [5] addresses mutant histone K27M-H3.3 26-35 peptide/HLA-A*02:01 complex on T2 cells (human). Described as above.
The target of experiment [6] is mutant histone K27M-H3.1 26-35 peptide/HLA-A*02:01 complex on T2 cells (human). Described as above.
In experiment [7] the target is WT H3.1 26-35 peptide/HLA-A*02:01 complex on T2 cells (human). The experiment is described as follows: flow cytometry, phage on T2 cells, anti-M13 + PE anti-mouse IgG.
Experiment [8] deals with control peptide mixture P20/HLA-A*02:01 complexes on T2 cells (human). Described as above.
Experiment [9] concerns the target HLA-A*02:01 on T2 cells without peptide loading (human). The description is as above.
In experiment [10] the target is WT H3.3 26-35 peptide/HLA-A*02:01 complex on T2 cells (human). The description is as above.
Experiment [11] concerns the target mutant histone K27M-H3.3 26-35 peptide/HLA-A*02:01 complex on T2 cells (human). The experiment is described as above.
Experiment [12] addresses mutant histone K27M-H3.1 26-35 peptide/HLA-A*02:01 complex on T2 cells (human). Described as above.
In experiment [13] the target is WT H3.1 26-35 peptide/HLA-A*02:01 complex on T2 cells (human). Nature of the experiment: flow cytometry, BB7.2 staining of T2 cells.
Experiment [14] addresses control peptide mixture P20/HLA-A*02:01 complexes on T2 cells (human). Nature of the experiment: flow cytometry, BB7.2 staining of T2 cells.
The target of experiment [15] is HLA-A*02:01 on T2 cells without peptide loading (human). Nature of the experiment: flow cytometry, BB7.2 staining of T2 cells.
The target in experiment [16] is WT H3.3 26-35 peptide/HLA-A*02:01 complex on T2 cells (human). The experiment is described as follows: flow cytometry, BB7.2 staining of T2 cells.
The target in experiment [17] is mutant histone K27M-H3.3 26-35 peptide/HLA-A*02:01 complex on T2 cells (human). The experiment is described as follows: flow cytometry, BB7.2 staining of T2 cells.
In experiment [18] the target is mutant histone K27M-H3.1 26-35 peptide/HLA-A*02:01 complex on T2 cells (human). The experiment is described as follows: flow cytometry, BB7.2 staining of T2 cells.
For experiment [19], the target named is WT H3.1 26-35 peptide/HLA-A*02:01 complex on T2 cells (human). Nature of the experiment: flow cytometry on T2 cells, secondary antibody only, no phage (background control).
In experiment [20] the target is control peptide mixture P20/HLA-A*02:01 complexes on T2 cells (human). The description is as above.
For experiment [21], the target named is HLA-A*02:01 on T2 cells without peptide loading (human). Described as above.
In experiment [22] the target is WT H3.3 26-35 peptide/HLA-A*02:01 complex on T2 cells (human). Described as above.
Experiment [23] deals with mutant histone K27M-H3.3 26-35 peptide/HLA-A*02:01 complex on T2 cells (human). The experiment is described as above.
The target in experiment [24] is mutant histone K27M-H3.1 26-35 peptide/HLA-A*02:01 complex on T2 cells (human). Described as above.

mouse anti-M13 mAb (antibody): the Median MFI (PE-A) was found to be 86 MFI in experiment [1]; 82 MFI in experiment [2]; 80 MFI in experiment [3]; 83 MFI in experiment [4]; 83 MFI in experiment [5]; 85 MFI in [6].
Consider negative control phage, for which the Median MFI (PE-A) in experiment [7] was 131 MFI; in experiment [8] it was 124 MFI; in experiment [9] it was 122 MFI; in [10], 128 MFI; in experiment [11], 133 MFI; in [12], 130 MFI.
BB7.2 (antibody): the Median MFI (PE-A) is 8700 MFI in experiment [13]; 11300 MFI in [14]; 3600 MFI in experiment [15]; 8650 MFI in experiment [16]; 9650 MFI in experiment [17]; 9530 MFI in [18].
Take “R-PE conjugated horse anti-mouse IgG (antibody)”: the Median MFI (PE-A) in experiment [19] amounted to 83 MFI; in [20], 82 MFI; in experiment [21], 82 MFI; in experiment [22], 83 MFI; in experiment [23], 83 MFI; in experiment [24], 85 MFI.
